Measurements taken from patent CN116143922A (BEIJING DONGFANG BIOTECH CO LTD, dated 2023).

Columns and labels:
THP-1细胞表面的LILRB4 [1] = target: T1, THP-1细胞表面的LILRB4 (human, UniProt Q8NHJ6 22-448); test: cell-based or functional assay
LILRA5 [2] = target: T2, LILRA5 (UniProt A6NI73 42-268, limits assumed); test: ELISA, coated LILR family protein, antibody at 50 μg/mL
LILRA6 [3] = target: T3, LILRA6 (UniProt Q6PI73 24-447, limits assumed); test: as above
LILRB1 [4] = target: T4, LILRB1 (UniProt Q8NHL6 24-461, limits assumed); test: as above
T4 sequence (Q8NHL6 24-461 limits assumed): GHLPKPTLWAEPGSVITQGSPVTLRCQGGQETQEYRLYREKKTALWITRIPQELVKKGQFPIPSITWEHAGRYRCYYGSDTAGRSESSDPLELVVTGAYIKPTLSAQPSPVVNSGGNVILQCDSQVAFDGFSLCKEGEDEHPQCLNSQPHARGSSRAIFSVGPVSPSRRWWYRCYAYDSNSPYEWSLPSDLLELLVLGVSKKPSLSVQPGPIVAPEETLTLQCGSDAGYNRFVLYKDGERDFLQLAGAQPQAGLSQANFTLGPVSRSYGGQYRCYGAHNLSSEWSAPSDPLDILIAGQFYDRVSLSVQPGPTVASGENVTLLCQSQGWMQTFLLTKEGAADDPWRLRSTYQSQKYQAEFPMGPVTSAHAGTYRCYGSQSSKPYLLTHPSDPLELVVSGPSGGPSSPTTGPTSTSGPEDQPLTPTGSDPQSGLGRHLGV

LILRB2 [5] = target: T5, LILRB2 (UniProt Q8N423 22-460, limits assumed); test: as above
T5 sequence (Q8N423 22-460 limits assumed): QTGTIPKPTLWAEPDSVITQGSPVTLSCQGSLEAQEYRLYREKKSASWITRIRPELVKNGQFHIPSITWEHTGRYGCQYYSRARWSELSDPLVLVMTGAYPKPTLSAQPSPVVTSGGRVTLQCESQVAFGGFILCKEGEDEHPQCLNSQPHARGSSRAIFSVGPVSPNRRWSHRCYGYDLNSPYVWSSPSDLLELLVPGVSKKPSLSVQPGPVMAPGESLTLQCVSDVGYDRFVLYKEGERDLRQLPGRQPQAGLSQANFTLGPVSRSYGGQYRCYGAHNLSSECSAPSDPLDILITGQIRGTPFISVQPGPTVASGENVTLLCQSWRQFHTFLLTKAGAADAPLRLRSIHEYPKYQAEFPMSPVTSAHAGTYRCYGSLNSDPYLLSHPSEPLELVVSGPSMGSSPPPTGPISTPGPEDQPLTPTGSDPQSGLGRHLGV

LILRB3 [6] = target: T6, LILRB3 (UniProt O75022 24-443, limits assumed); test: as above
T6 sequence (O75022 24-443 limits assumed): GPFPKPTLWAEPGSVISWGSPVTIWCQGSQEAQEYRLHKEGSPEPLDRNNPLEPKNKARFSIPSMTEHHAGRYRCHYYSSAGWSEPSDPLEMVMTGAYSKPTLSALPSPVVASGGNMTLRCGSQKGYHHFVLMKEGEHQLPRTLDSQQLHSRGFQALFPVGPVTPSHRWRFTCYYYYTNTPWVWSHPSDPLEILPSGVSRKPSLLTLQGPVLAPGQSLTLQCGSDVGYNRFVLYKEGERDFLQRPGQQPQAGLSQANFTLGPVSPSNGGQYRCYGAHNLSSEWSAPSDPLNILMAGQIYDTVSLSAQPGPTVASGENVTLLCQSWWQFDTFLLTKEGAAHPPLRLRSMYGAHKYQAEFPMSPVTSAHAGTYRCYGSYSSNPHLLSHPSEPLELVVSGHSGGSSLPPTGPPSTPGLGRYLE

LILRB5 [7] = target: T7, LILRB5 (UniProt O75023 24-458, limits assumed); test: as above
T7 sequence (O75023 24-458 limits assumed): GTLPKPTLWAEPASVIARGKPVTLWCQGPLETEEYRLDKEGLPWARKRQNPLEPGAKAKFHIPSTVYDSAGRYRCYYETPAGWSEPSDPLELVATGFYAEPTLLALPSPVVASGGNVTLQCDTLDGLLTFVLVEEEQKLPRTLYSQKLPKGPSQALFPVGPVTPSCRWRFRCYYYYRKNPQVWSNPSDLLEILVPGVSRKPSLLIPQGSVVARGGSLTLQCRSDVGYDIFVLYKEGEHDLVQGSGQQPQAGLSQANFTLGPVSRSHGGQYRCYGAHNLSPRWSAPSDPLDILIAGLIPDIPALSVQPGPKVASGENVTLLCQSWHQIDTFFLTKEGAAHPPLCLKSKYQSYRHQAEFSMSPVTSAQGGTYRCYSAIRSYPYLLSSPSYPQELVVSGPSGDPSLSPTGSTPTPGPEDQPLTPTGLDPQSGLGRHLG

LILRB4抗原 (人LILRB4蛋白胞外段) [8] = target: T8, LILRB4抗原 (人LILRB4蛋白胞外段) (human, UniProt Q8NHJ6 22-259); test: as above
T8 construct: extracellular domain

LILRA1 [9] = target: T9, LILRA1 (UniProt O75019 17-461, limits assumed); test: as above
T9 sequence (O75019 17-461 limits assumed): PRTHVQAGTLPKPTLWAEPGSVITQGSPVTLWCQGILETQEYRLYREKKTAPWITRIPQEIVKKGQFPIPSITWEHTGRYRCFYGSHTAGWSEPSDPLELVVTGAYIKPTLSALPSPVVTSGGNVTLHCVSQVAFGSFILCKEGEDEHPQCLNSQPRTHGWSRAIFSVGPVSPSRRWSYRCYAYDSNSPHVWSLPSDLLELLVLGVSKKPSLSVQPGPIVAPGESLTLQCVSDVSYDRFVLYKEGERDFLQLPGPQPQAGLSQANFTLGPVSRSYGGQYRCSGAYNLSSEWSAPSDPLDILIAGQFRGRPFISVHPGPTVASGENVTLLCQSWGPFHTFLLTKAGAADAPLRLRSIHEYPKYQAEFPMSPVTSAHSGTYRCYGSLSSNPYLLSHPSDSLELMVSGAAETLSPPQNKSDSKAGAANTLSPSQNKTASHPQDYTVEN

LILRA2 [10] = target: T10, LILRA2 (UniProt Q8N149 24-449, limits assumed); test: as above
T10 sequence (Q8N149 24-449 limits assumed): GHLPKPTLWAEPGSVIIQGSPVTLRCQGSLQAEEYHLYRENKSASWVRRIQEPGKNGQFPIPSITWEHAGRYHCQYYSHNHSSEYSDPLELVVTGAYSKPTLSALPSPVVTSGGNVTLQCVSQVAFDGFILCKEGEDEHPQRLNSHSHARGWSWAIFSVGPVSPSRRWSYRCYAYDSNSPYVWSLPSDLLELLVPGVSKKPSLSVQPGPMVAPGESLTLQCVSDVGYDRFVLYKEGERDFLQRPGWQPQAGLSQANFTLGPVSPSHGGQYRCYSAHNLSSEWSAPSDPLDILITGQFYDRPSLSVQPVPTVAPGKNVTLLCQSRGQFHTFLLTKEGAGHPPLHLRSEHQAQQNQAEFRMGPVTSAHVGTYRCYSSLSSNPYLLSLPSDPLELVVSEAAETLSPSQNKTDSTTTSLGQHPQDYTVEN

LILRA3 [11] = target: T11, LILRA3 (UniProt Q8N6C8 24-439); test: as above
T11 sequence (Q8N6C8 24-439 limits assumed): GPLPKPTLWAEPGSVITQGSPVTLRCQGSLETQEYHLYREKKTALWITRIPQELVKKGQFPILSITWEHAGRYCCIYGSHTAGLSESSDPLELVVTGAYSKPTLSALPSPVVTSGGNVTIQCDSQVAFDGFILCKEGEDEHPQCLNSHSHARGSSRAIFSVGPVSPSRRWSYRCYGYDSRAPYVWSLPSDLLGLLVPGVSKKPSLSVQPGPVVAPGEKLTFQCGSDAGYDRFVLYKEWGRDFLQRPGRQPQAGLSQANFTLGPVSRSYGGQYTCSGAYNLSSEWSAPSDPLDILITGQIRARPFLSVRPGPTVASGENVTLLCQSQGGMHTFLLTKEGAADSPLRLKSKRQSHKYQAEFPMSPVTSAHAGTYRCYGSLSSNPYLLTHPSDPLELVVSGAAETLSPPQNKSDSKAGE

LILRA4 [12] = target: T12, LILRA4 (UniProt P59901 24-446, limits assumed); test: as above
T12 sequence (P59901 24-446 limits assumed): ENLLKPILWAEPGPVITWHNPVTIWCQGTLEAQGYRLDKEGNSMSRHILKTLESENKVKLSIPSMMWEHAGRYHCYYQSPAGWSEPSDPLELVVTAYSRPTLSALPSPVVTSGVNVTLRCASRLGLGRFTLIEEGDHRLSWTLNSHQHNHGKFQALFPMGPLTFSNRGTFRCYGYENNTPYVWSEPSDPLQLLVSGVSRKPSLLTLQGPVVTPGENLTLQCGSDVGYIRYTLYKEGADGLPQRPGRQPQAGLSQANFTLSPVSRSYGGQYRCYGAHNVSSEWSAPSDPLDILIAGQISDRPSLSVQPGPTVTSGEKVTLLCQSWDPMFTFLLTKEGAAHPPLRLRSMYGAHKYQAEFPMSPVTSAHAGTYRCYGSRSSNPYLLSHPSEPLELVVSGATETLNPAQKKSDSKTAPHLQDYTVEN

THP-1细胞表面的LILRB4 [13] = target: T1, THP-1细胞表面的LILRB4; test: flow cytometry on THP-1 cells, FITC goat anti-mouse IgG detection
LILRB4抗原 (人LILRB4蛋白胞外段) [14] = target: T8, LILRB4抗原 (人LILRB4蛋白胞外段); test: ELISA, coated LILRB4 100 ng/well, goat anti-mouse IgG-HRP detection
LILRA5 [15] = target: T2, LILRA5; test: ELISA, coated LILR family protein 100 ng/well, single antibody concentration
LILRA6 [16] = target: T3, LILRA6; test: as above
LILRB1 [17] = target: T4, LILRB1; test: as above
LILRB2 [18] = target: T5, LILRB2; test: as above
LILRB3 [19] = target: T6, LILRB3; test: as above
LILRB5 [20] = target: T7, LILRB5; test: as above
LILRA1 [21] = target: T9, LILRA1; test: as above
LILRA2 [22] = target: T10, LILRA2; test: as above
LILRA3 [23] = target: T11, LILRA3; test: as above
LILRA4 [24] = target: T12, LILRA4; test: as above
THP-1细胞表面的LILRB4 [25] = target: T1, THP-1细胞表面的LILRB4; test: flow cytometry competition on THP-1 cells; MD-Ⅰ titrated, competitor FITC-labelled ApoE at 0.4 μg/mL

T3 sequence (Q6PI73 24-447 limits assumed): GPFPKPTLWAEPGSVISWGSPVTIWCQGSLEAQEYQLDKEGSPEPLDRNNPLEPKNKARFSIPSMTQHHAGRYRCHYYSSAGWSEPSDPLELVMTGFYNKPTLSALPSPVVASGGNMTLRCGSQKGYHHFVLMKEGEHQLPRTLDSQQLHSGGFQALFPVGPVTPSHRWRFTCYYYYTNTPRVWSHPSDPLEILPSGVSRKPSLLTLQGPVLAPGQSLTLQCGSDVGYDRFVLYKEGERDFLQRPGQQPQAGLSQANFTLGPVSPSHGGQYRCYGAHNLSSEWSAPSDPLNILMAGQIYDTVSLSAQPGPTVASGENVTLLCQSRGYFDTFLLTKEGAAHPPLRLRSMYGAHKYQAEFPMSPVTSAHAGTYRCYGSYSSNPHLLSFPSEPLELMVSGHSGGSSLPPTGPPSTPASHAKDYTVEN
T2 sequence (A6NI73 42-268 limits assumed): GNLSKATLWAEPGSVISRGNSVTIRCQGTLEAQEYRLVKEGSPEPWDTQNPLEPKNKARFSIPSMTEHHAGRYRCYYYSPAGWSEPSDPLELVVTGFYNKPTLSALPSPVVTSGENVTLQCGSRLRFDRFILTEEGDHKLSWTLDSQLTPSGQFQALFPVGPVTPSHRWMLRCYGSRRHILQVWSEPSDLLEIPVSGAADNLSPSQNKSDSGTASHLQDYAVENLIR

IC50 of inhibition of ARG1 secretion by THP-1 cells in the presence of ApoE (精氨酸酶活性检测) (THP-1细胞表面的LILRB4 [1]): 310 µg/mL
OD 450nm/630nm (LILRA5 [2]): 0.078
OD 450nm/630nm (LILRA6 [3]): 0.045
OD 450nm/630nm (LILRB1 [4]): 0.047
OD 450nm/630nm (LILRB2 [5]): 0.014
OD 450nm/630nm (LILRB3 [6]): 0.015
OD 450nm/630nm (LILRB5 [7]): 0.056
OD 450nm/630nm (LILRB4抗原 (人LILRB4蛋白胞外段) [8]): 2.42
OD 450nm/630nm (LILRA1 [9]): 0.075
OD 450nm/630nm (LILRA2 [10]): 0.054
OD 450nm/630nm (LILRA3 [11]): 0.028
OD 450nm/630nm (LILRA4 [12]): 0.156
EC50 (THP-1细胞表面的LILRB4 [13]): 5.09 µg/mL
EC50 (LILRB4抗原 (人LILRB4蛋白胞外段) [14]): 0.221 µg/mL
binding result (LILRA5 [15]): no binding (tested: 50μg/mL)
binding result (LILRA6 [16]): no binding (tested: 50μg/mL)
binding result (LILRB1 [17]): no binding (tested: 50μg/mL)
binding result (LILRB2 [18]): no binding (tested: 50μg/mL)
binding result (LILRB3 [19]): no binding (tested: 50μg/mL)
binding result (LILRB5 [20]): no binding (tested: 50μg/mL)
binding result (LILRA1 [21]): no binding (tested: 50μg/mL)
binding result (LILRA2 [22]): no binding (tested: 50μg/mL)
binding result (LILRA3 [23]): no binding (tested: 50μg/mL)
binding result (LILRA4 [24]): no binding (tested: 50μg/mL)
IC50 (THP-1细胞表面的LILRB4 [25]): 8.62 µg/mL
B1: 抗LILRB4单克隆抗体MD-Ⅰ (mouse IgG1 heavy chain constant region, mouse Ck light chain constant region) (antibody, V domains shown)
VH: EVQLQESGPQLVRPGTSVKLSCKASGYTFTNYWIHWVKQRPGQGLEWIGEINPTNGHTNYNEKFKSKATLTVDKSSSTAYMQLSSLTSEDSAVYYCARYTYDQDAMDYWGQGTSVTVSS
VL: DIVITQSTSSLSASLGDRVTISCRASQDISNYLNWYQQKPDGTVKLLIYYTSRLHSGVPSRFSGSGSGTDYSLTISNLEQEDIATYFCQQGNTLPPTFGGGTKLEIKA
notes: also called MD-I
